Experimental data published in PMC9121386.

Biological target: 80S ribosome (purified 80S ribosomal fraction from H1299 cells) (human (endogenous in H1299))

Chain of fragile histidine triad (Fhit), wild type (P49789 whole entry): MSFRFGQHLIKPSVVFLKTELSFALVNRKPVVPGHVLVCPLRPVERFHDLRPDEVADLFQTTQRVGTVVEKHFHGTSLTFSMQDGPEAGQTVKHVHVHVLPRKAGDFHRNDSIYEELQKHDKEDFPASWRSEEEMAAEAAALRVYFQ

turnover of Ap3A by Fhit (RP-HPLC) with 80S ribosomes pre-incubated with RNaseA: < 5%
Substance: fragile histidine triad (Fhit), wild type (from UniProt P49789 1-147) (enzyme)
